Substrate: O=[N+]([O-])c1ccc(OP(=O)(O)O)cc1
Assay: purified protein
Assay type: biochemical, Homo sapiens
Conditions: 25 mM HEPES, 50 mM NaCl, 5 mM DTT, 2.5 mM EDTA, pH 7.2, 25 °C
[1] = 20 min, text (b9) says STS2 has lower Km than STS1, against the table

B1: STS2-HP (STS2 histidine phosphatase domain) (Homo sapiens) (protein)
chain: SLQALQATVARKSVLVVRHGERVDQIFGKAWLQQCSTPDGKYYRPDLNFPCSLPRRSRGIKDFENDPPLSSCGIFQSRIAGDALLDSGIRISSVFASPALRCVQTAKLILEELKLEKKIKIRVEPGIFEWTKWEAGKTTPTLMSLEELKEANFNIDTDYRPAFPLSALMPAESYQEYMDRCTASMVQIVNTCPQDTGVILIVSHGSTLDSCTRPLLGLPPRECGDFAQLVRKIPSLGMCFCEENKEEGKWELVNPPVKTLTHGANAAFNWRNWISGN
Km [1]: 5.39 ± 0.52 mM
kcat [1]: 0.27 ± 0.005 s⁻¹
kcat/Km [1]: 50.5 ± 4.51 M⁻¹ s⁻¹

B2: STS1-HP (STS1 histidine phosphatase domain) (Homo sapiens) (protein)
chain: GPQKRCLFVCRHGERMDVVFGKYWLSQCFDAKGRYIRTNLNMPHSLPQRSGGFRDYEKDAPITVFGCMQARLVGEALLESNTIIDHVYCSPSLRCVQTAHNILKGLQQENHLKIRVEPGLFEWTKWVAGSTLPAWIPPSELAAANLSVDTTYRPHIPISKLVVSESYDTYISRSFQVTKEIISECKSKGNNILIVAHASSLEACTCQLQGLSPQNSKDFVQMVRKIPYLGFCSCEELGETGIWQLTDPPILPLTHGPTGGFNWRETLLQE
Km (10 min): 3.52 ± 0.44 mM
kcat (10 min): 67.7 ± 1.31 s⁻¹
kcat/Km (10 min): 19500 ± 2100 M⁻¹ s⁻¹
